Assay results: patent US20230002480A1

Columns and labels:
Test in all cases: cell-based or functional assay
[1] = target: HIV-1 Env of pseudovirus CNE58 (HIV-1)
[2] = target: HIV-1 Env of pseudovirus CAP45.2.00.G3 (HIV-1)
[3] = target: HIV-1 Env of pseudovirus 620345.c01 (HIV-1)
[4] = target: HIV-1 Env of pseudovirus X1193_c1 (HIV-1)
[5] = target: HIV-1 Env of pseudovirus THRO4156.18 (HIV-1)
[6] = target: HIV-1 Env of pseudovirus 3817.v2.c59 (HIV-1)
[7] = target: HIV-1 Env of pseudovirus 3103.v3.c10 (HIV-1)
[8] = target: HIV-1 Env of pseudovirus CAAN5342.A2 (HIV-1)
[9] = target: HIV-1 Env of pseudovirus SC422661.8 (HIV-1)
[10] = target: HIV-1 Env of pseudovirus BJOX025000.01.1 (HIV-1)
[11] = target: HIV-1 Env of pseudovirus T255-34 (HIV-1)
[12] = target: HIV-1 Env of pseudovirus WITO4160.33 (HIV-1)
[13] = target: HIV-1 Env of pseudovirus HIV-001428-2.42 (HIV-1)
[14] = target: HIV-1 Env of pseudovirus RHPA4259.7 (HIV-1)
[15] = target: HIV-1 Env of pseudovirus 211-9 (HIV-1)
[16] = target: HIV-1 Env of pseudovirus 6240_08_TA5_4622 (HIV-1)
[17] = target: HIV-1 Env of pseudovirus 6480.v4.c25 (HIV-1)
[18] = target: HIV-1 Env of pseudovirus Ce0393_C3 (HIV-1)
[19] = target: HIV-1 Env of pseudovirus CNE30 (HIV-1)
[20] = target: HIV-1 Env of pseudovirus 0815.v3.c3 (HIV-1)
[21] = target: HIV-1 Env of pseudovirus BF1266.431a (HIV-1)
[22] = target: HIV-1 Env of pseudovirus 191955_A11 (HIV-1)
[23] = target: HIV-1 Env of pseudovirus CAP210.2.00.E8 (HIV-1)
[24] = target: HIV-1 Env of pseudovirus Ce1172_H1 (HIV-1)
[25] = target: HIV-1 Env of pseudovirus C2101.c01 (HIV-1)
[26] = target: HIV-1 Env of pseudovirus C3347.c11 (HIV-1)
[27] = target: HIV-1 Env of pseudovirus HIV-16055-2.3 (HIV-1)
[28] = target: HIV-1 Env of pseudovirus 6244_13_B5_4576 (HIV-1)
[29] = target: HIV-1 Env of pseudovirus Q769.d22 (HIV-1)
[30] = target: HIV-1 Env of pseudovirus 9004SS_A3_4 (HIV-1)
[31] = target: HIV-1 Env of pseudovirus ZM109F.PB4 (HIV-1)
[32] = target: HIV-1 Env of pseudovirus X2131_C1_B5 (HIV-1)
[33] = target: HIV-1 Env of pseudovirus 246F C1G (HIV-1)
[34] = target: HIV-1 Env of pseudovirus 1394C9G1(Rev-) (HIV-1)
[35] = target: HIV-1 Env of pseudovirus 6535.3 (HIV-1)

3BNC117 (antibody) showed a neutralization IC50 [1] of 0.25 µg/mL, a neutralization IC80 [1] of 2.03 µg/mL and a neutralization IC50 [2] of 3.88 µg/mL. For the same substance, the neutralization IC80 [2] was greater than 50 µg/mL, the IC50, titer in TZM.bl cells [3] was greater than 15 µg/mL and the IC80, titer in TZM.bl cells [3] was greater than 15 µg/mL. For the same substance, the IC50, titer in TZM.bl cells [4] was 0.06 µg/mL, the IC80, titer in TZM.bl cells [4] was 0.25 µg/mL and the neutralization IC50 [5] was 1.76 µg/mL. It also gave a neutralization IC80 [5] of 10.1 µg/mL, an IC50, titer in TZM.bl cells [6] of 0.15 µg/mL and an IC80, titer in TZM.bl cells [6] of 0.52 µg/mL. For the same substance, the IC50, titer in TZM.bl cells [7] was 0.22 µg/mL, the IC80, titer in TZM.bl cells [7] was 0.85 µg/mL and the neutralization IC50 [8] was 0.42 µg/mL. It also gave a neutralization IC80 [8] of 1.51 µg/mL, a neutralization IC50 [9] of 0.02 µg/mL and a neutralization IC80 [9] of 0.08 µg/mL. For the same substance, the IC50, titer in TZM.bl cells [10] was 0.05 µg/mL, the IC80, titer in TZM.bl cells [10] was 0.2 µg/mL and the IC50, titer in TZM.bl cells [11] was 0.02 µg/mL. The IC80, titer in TZM.bl cells [11] was 0.14 µg/mL, the neutralization IC50 [12] was 0.01 µg/mL and the neutralization IC80 [12] was 0.04 µg/mL. The neutralization IC50 [13] was 0.003 µg/mL, the neutralization IC80 [13] was 0.02 µg/mL and the neutralization IC50 [14] was less than 0.09 µg/mL. For the same substance, the neutralization IC80 [14] was less than 0.09 µg/mL, the IC50, titer in TZM.bl cells [15] was 0.35 µg/mL and the IC80, titer in TZM.bl cells [15] was 1.28 µg/mL. The neutralization IC50 [16] was 0.33 µg/mL, the neutralization IC80 [16] was 1.17 µg/mL and the IC50, titer in TZM.bl cells [17] was 0.01 µg/mL. The IC80, titer in TZM.bl cells [17] was 0.04 µg/mL, the neutralization IC50 [18] was 0.2 µg/mL and the neutralization IC80 [18] was 0.67 µg/mL. It also gave a neutralization IC50 [19] of 0.26 µg/mL, a neutralization IC80 [19] of 0.85 µg/mL and an IC50, titer in TZM.bl cells [20] of 0.01 µg/mL. It also gave an IC80, titer in TZM.bl cells [20] of 0.02 µg/mL, a neutralization IC50 [21] of 0.03 µg/mL and a neutralization IC80 [21] of 0.09 µg/mL. The neutralization IC50 [22] was greater than 50 µg/mL, the neutralization IC80 [22] was greater than 50 µg/mL and the neutralization IC50 [23] was 17.2 µg/mL. The neutralization IC80 [23] was greater than 50 µg/mL, the neutralization IC50 [24] was greater than 50 µg/mL and the neutralization IC80 [24] was greater than 50 µg/mL. It also gave an IC50, titer in TZM.bl cells [25] of 0.05 µg/mL, an IC80, titer in TZM.bl cells [25] of 0.31 µg/mL and an IC50, titer in TZM.bl cells [26] of 0.03 µg/mL. The IC80, titer in TZM.bl cells [26] was 0.13 µg/mL, the neutralization IC50 [27] was 5.6 µg/mL and the neutralization IC80 [27] was greater than 50 µg/mL. It also gave a neutralization IC50 [28] of 0.04 µg/mL, a neutralization IC80 [28] of 0.15 µg/mL and a neutralization IC50 [29] of 0.01 µg/mL. For the same substance, the neutralization IC80 [29] was 0.04 µg/mL, the neutralization IC50 [30] was 0.07 µg/mL and the neutralization IC80 [30] was 0.18 µg/mL. For the same substance, the neutralization IC50 [31] was 0.14 µg/mL, the neutralization IC80 [31] was 0.88 µg/mL and the IC50, titer in TZM.bl cells [32] was 0.43 µg/mL. It also gave an IC80, titer in TZM.bl cells [32] of 1.96 µg/mL, a neutralization IC50 [33] of 19.3 µg/mL and a neutralization IC80 [33] greater than 50 µg/mL. The neutralization IC50 [34] was greater than 50 µg/mL, the neutralization IC80 [34] was greater than 50 µg/mL and the neutralization IC50 [35] was 0.55 µg/mL. For the same substance, the neutralization IC80 [35] was 2.44 µg/mL.
